Residue numbers refer to the chain shown, from its start.
How the values were obtained:
Assay in all cases: ITC; ITC: 20 mM Tris pH 7.5, 150 mM NaCl, 25 °C; EMSA: same buffer, 4 °C, 6% native gel in 0.5x TBE
Conditions in all cases: protein: recombinant; tags: His6-SUMO removed by TEV; chain copies: 2; blunt
NFIL3 R95Q = molecular target: T1, NFIL3 R95Q (human, UniProt Q16649 65-161, R95Q)
T1 sequence: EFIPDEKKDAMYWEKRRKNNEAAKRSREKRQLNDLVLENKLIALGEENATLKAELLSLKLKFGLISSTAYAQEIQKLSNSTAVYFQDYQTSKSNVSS

NFIL3 N84A = molecular target: T2, NFIL3 N84A (human, UniProt Q16649 65-161, N84A)
T2 sequence: T1 sequence with N20A, Q31R

NFIL3 A113T = molecular target: T3, NFIL3 A113T (human, UniProt Q16649 65-161, A113T)
T3 sequence: T1 sequence with Q31R, A49T

NFIL3 E111Q = molecular target: T4, NFIL3 E111Q (human, UniProt Q16649 65-161, E111Q)
T4 sequence: T1 sequence with Q31R, E47Q

NFIL3 N112D = molecular target: T5, NFIL3 N112D (human, UniProt Q16649 65-161, N112D)
T5 sequence: T1 sequence with Q31R, N48D

NFIL3 E78G = molecular target: T6, NFIL3 E78G (human, UniProt Q16649 65-161, E78G)
T6 sequence: T1 sequence with E14G, Q31R

NFIL3 A113V = molecular target: T7, NFIL3 A113V (human, UniProt Q16649 65-161, A113V)
T7 sequence: T1 sequence with Q31R, A49V

NFIL3 R94H = molecular target: T8, NFIL3 R94H (human, UniProt Q16649 65-161, R94H)
T8 sequence: T1 sequence with R30H, Q31R

C/EBPα D320E = C/EBPα D320E (human, UniProt P49715 281-340, D320E)
NFIL3 E111D = molecular target: T9, NFIL3 E111D (human, UniProt Q16649 65-161, E111D)
T9 sequence: T1 sequence with Q31R, E47D

C/EBPβ E309D = C/EBPβ E309D (human, UniProt P17676 259-336, E309D)
C/EBPβ E309D, sequence (P17676 259-336 E309D): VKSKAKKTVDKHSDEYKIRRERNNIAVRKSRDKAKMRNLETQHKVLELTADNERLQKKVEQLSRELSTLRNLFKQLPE

C/EBPα D320E, sequence (P49715 281-340 D320E): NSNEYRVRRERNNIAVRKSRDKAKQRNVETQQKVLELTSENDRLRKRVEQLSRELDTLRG

B1: TTACGTAA (dsDNA)
DNA 1: CATTACGTAATG
DNA 2: CATTACGTAATG
- Kd (NFIL3 R95Q): 8400 ± 720 nM
- Kd (NFIL3 N84A): 1490 ± 110 nM
- Kd (NFIL3 A113T): 220 ± 30 nM
- Kd (NFIL3 E111Q): 200 ± 20 nM
- Kd (NFIL3 N112D): 2150 ± 160 nM
- Kd (NFIL3 E78G): 2180 ± 150 nM
- Kd (NFIL3 A113V): 120 ± 10 nM
- Kd (NFIL3 R94H): 4010 ± 740 nM
- binding signal (C/EBPα D320E): ~5 fold stronger than WT
- binding signal (NFIL3 E111D): ~8 fold weaker than WT
- binding signal (C/EBPβ E309D): ~4 fold weaker than WT

Source: PMC10941009, “Structural basis for specific DNA sequence recognition by the transcription factor NFIL3” (The Journal of Biological Chemistry, 2024)
